The values below come from article PMC11266426, “Membrane remodeling by FAM92A1 during brain development regulates neuronal morphology, synaptic function, and cognition” (Nature Communications, 2024).

The data set deals with the molecule itself. The data set can be described thus: SEC-MALS; purified proteins on a Superdex 200 10/300 column at 4 °C, flow 0.5 mL/min; MiniDAWN light scattering and Optilab dRI detectors.

B1: Human FAM92A1 BAR domain (residues 1-219), wild type (domain or fragment, UniProt A1XBS5 1-219, looked up)
chain: MMRRTLENRNAQTKQLQTAVSNVEKHFGELCQIFAAYVRKTARLRDKADLLVNEINAYAATETPHLKLGLMNFADEFAKLQDYRQAEVERLEAKVVEPLKTYGTIVKMKRDDLKATLTARNREAKQLTQLERTRQRNPSDRHVISQAETELQRAAMDASRTSRHLEETINNFERQKMKDIKTIFSEFITIEMLFHGKALEVYTAAYQNIQNIDEDEDLE
notes: FAM92A1 (CIBAR1), human, residues 1-219 cloned into the pHAT vector between SpeI and NsiI; residues 2-211 form the BAR domain in the crystal structure; Homodimer by crystal structure and SEC-MALS; The pHAT vector probably adds the His tag at the N-terminus (surmise); also called FAM92A1 N-terminal region; WT; source: E. coli BL21 (DE3), purified (Ni-NTA, gel filtration on Superdex 75)
What is called stoichiometry N is a count of units in the complex or per binding partner. As for B1, the “stoichiometry N” value worked out at 2.
